From US20190100563A1 (UNIVERSITY COURT OF THE UNIVERSITY OF EDINBURGH, published 2019)
Values joined by “and” are separate entries in the source; they are usually repeats but may differ in a detail not shown here. Equal values may be shown once.

T1: CFH 10-11 (recombinant fragment, CCPs 10-11 of human CFH) (human, UniProt P08603 567-686)
T1 sequence: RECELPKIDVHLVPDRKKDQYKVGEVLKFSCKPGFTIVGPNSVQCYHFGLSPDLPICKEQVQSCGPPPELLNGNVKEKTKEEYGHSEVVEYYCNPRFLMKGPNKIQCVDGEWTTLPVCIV

T2: CFH 6-8 (recombinant construct corresponding to CFH CCPs 6-8) (human, UniProt P08603 321-509)
T2 sequence: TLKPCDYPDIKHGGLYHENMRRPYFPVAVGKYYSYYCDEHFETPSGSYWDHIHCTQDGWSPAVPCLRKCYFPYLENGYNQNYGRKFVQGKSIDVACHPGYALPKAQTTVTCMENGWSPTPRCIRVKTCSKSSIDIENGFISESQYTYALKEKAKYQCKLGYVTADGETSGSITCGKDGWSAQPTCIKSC

T3: CFH 8-15 (recombinant fragment, CCPs 8-15 of human CFH) (human, UniProt P08603 446-928)
T3 construct: also called CF8-15
T3 sequence: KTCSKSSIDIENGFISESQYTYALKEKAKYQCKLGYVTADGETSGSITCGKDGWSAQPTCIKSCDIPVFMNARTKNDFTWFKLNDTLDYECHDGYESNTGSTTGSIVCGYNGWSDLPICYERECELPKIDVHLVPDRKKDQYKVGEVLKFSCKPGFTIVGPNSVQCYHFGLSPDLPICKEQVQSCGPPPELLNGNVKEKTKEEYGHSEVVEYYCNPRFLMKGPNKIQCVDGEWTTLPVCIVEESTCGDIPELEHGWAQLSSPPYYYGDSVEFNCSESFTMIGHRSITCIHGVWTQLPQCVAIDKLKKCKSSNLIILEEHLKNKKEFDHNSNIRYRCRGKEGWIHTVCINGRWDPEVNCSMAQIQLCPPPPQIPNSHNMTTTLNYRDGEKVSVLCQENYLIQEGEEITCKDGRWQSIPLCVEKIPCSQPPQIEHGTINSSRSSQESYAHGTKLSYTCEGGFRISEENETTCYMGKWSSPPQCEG

T4: CFH 10-15 (recombinant fragment, CCPs 10-15 of human CFH) (human, UniProt P08603 567-928)
T4 sequence: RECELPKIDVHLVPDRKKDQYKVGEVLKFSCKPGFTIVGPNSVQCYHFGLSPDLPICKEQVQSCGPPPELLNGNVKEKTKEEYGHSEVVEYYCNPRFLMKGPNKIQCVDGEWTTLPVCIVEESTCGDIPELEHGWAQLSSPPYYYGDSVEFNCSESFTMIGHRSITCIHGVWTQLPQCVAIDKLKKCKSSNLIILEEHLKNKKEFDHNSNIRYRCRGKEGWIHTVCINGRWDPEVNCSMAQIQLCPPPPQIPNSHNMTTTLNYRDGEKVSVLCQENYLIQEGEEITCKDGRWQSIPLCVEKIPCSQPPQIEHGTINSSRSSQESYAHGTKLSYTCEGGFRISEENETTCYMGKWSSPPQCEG

T5: CFH 8-9 (recombinant fragment, CCPs 8-9 of human CFH) (human, UniProt P08603 446-566)
T5 sequence: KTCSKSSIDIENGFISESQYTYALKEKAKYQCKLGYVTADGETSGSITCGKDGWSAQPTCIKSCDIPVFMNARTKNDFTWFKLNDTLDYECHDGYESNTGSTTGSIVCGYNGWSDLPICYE

B1: His-SUMO-PspCN-Cys (other)
chain: ATENEGSTQAATSSNMAKTEHRKAAKQVVDEYIEKMLREIQLDRRKHTQNVALNIKLSAIKTKYLRELNVLEEKSKDELPSEIKAKLDAAFEKFKKDTLKPGEKGSGSGSGSGGC
notes: also called PspCN-Cys (as SPR ligand); not shown: N-terminal His-SUMO tag
B2: PspC (52-140) (other)
chain: MAKTEHRKAAKQVVDEYIEKMLREIQLDRRKHTQNVALNIKLSAIKTKYLRELNVLEEKSKDELPSEIKAKLDAAFEKFKKDTLKPGEK
B3: Human complement factor H purified from plasma (other)
chain: EDCNELPPRRNTEILTGSWSDQTYPEGTQAIYKCRPGYRSLGNVIMVCRKGEWVALNPLRKCQKRPCGHPGDTPFGTFTLTGGNVFEYGVKAVYTCNEGYQLLGEINYRECDTDGWTNDIPICEVVKCLPVTAPENGKIVSSAMEPDREYHFGQAVRFVCNSGYKIEGDEEMHCSDDGFWSKEKPKCVEISCKSPDVINGSPISQKIIYKENERFQYKCNMGYEYSERGDAVCTESGWRPLPSCEEKSCDNPYIPNGDYSPLRIKHRTGDEITYQCRNGFYPATRGNTAKCTSTGWIPAPRCTLKPCDYPDIKHGGLYHENMRRPYFPVAVGKYYSYYCDEHFETPSGSYWDHIHCTQDGWSPAVPCLRKCYFPYLENGYNQNYGRKFVQGKSIDVACHPGYALPKAQTTVTCMENGWSPTPRCIRVKTCSKSSIDIENGFISESQYTYALKEKAKYQCKLGYVTADGETSGSITCGKDGWSAQPTCIKSCDIPVFMNARTKNDFTWFKLNDTLDYECHDGYESNTGSTTGSIVCGYNGWSDLPICYERECELPKIDVHLVPDRKKDQYKVGEVLKFSCKPGFTIVGPNSVQCYHFGLSPDLPICKEQVQSCGPPPELLNGNVKEKTKEEYGHSEVVEYYCNPRFLMKGPNKIQCVDGEWTTLPVCIVEESTCGDIPELEHGWAQLSSPPYYYGDSVEFNCSESFTMIGHRSITCIHGVWTQLPQCVAIDKLKKCKSSNLIILEEHLKNKKEFDHNSNIRYRCRGKEGWIHTVCINGRWDPEVNCSMAQIQLCPPPPQIPNSHNMTTTLNYRDGEKVSVLCQENYLIQEGEEITCKDGRWQSIPLCVEKIPCSQPPQIEHGTINSSRSSQESYAHGTKLSYTCEGGFRISEENETTCYMGKWSSPPQCEGLPCKSPPEISHGVVAHMSDSYQYGEEVTYKCFEGFGIDGPAIAKCLGEKWSHPPSCIKTDCLSLPSFENAIPMGEKKDVYKAGEQVTYTCATYYKMDGASNVTCINSRWTGRPTCRDTSCVNPPTVQNAYIVSRQMSKYPSGERVRYQCRSPYEMFGDEEVMCLNGNWTEPPQCKDSTGKCGPPPPIDNGDITSFPLSVYAPASSVEYQCQNLYQLEGNKRITCRNGQWSEPPKCLHPCVISREIMENYNIALRWTAKQKLYSRTGESVEFVCKRGYRLSSRSHTLRTTCWDGKLEYPTCAKR
notes: also called Plasma CFH; plasma-purified CFH
B4: sPspCN (N-terminally hexaHis-SUMO-tagged PspC residues 37-140, S. pneumoniae strain D39) (other)
chain: ATENEGSTQAATSSNMAKTEHRKAAKQVVDEYIEKMLREIQLDRRKHTQNVALNIKLSAIKTKYLRELNVLEEKSKDELPSEIKAKLDAAFEKFKKDTLKPGEK
notes: not shown: N-terminal hexaHis-SUMO tag from the pE-SUMOpro Kan vector
B5: Plasma CFH:PspCN complex (other)
chain 1: B3 chain
chain 2: B4 chain
notes: also called PspCN:CFH
B6: PspCN (TIGR4 37-179), fragment of PspC (CbpA) of S. pneumoniae strain TIGR4 (other)
chain: ATENEGATQVPTSSNRANESQAEQGEQPKKLDSERDKARKEVEEYVKKIVGESYAKSTKKRHTITVALVNELNNIKNEYLNKIVESTSESQLQILMMESRSKVDEAVSKFEKDSSSSSSSDSSTKPEASDTAKPNKPTEPGEK
notes: not shown: N-terminal hexaHis-SUMO tag used for capture on the NTA chip
B7: His-SUMO-Cys-PspCN (other)
chain: CGSGSGSGSGGATENEGSTQAATSSNMAKTEHRKAAKQVVDEYIEKMLREIQLDRRKHTQNVALNIKLSAIKTKYLRELNVLEEKSKDELPSEIKAKLDAAFEKFKKDTLKPGEK
notes: also called Cys-PspCN (as SPR ligand); not shown: N-terminal His-SUMO tag

Key:
[1] = molecular target: Human complement factor H purified from plasma (human) (UniProt P08603); assay: SPR, immobilised TIGR4 fragment, FH as analyte
[2] = molecular target: Human complement factor H purified from plasma (human) (UniProt P08603); assay: SPR, TIGR4 fragment on NTA chip, CFH as analyte
[3] = molecular target: Human complement factor H purified from plasma (human) (UniProt P08603); assay: SPR
[4] = molecular target: Human C3b (plasma-purified) (human) (UniProt P01024); assay: SPR (Biacore), coupled C3b
[5] = molecular target: Human C3d (plasma-purified) (human) (UniProt P01024); assay: SPR (Biacore), coupled C3d
[6] = molecular target: B3; assay: SPR, His-SUMO-PspCN-Cys as ligand, plasma-purified CFH as analyte, kinetic analysis
[7] = molecular target: B3; assay: SPR, immobilised PspC fragment, CFH flowed over
[8] = molecular target: T6, Human C3b (plasma-purified) (human, UniProt P01024 23-667; P01024 749-1663); assay: SPR (Biacore), coupled C3b, TIGR4 experiment
[9] = molecular target: T6, Human C3b (plasma-purified); assay: SPR, amine-coupled C3b on C1 chip, equilibrium 1:1 fit
Protocol: The sensor chip was regenerated by 2×30 s injections of 1 M NaCl. Data were analysed using the Biacore evaluation software and equilibrium affinity parameters were calculated using a 1:1 binding affinity model.
Commercially sources plasma-purified human C3b, C3c and C3d were immobilized using standard amine coupling to different channels of the same C1 SPR chip (Biacore).

[10] = molecular target: T1, CFH 10-11 (recombinant fragment, CCPs …); assay: SPR, sPspCN on NTA/Ni2+ chip
[11] = molecular target: T2, CFH 6-8 (recombinant construct …); assay: SPR, sPspCN on NTA/Ni2+ chip
[12] = molecular target: T3, CFH 8-15 (recombinant fragment, CCPs …); assay: SPR, sPspCN on NTA/Ni2+ chip
[13] = molecular target: B3; assay: SPR, sPspCN on NTA/Ni2+ chip, CFH as analyte, 1:1 kinetic fit
[14] = molecular target: T7, Recombinant human CFH (D1119G) from Pichia pastoris (human, UniProt P08603 19-1231); assay: SPR, sPspCN on NTA/Ni2+ chip, rCFH-D1119G as analyte, 1:1 kinetic fit
T7 construct: also called rCFH-D1119G; rCFH (D1119G)

[15] = molecular target: B3; assay: not stated there (SPR in the examples)
[16] = molecular target: T3, CFH 8-15 (recombinant fragment, CCPs …); assay: SPR, sPspCN on NTA/Ni2+ chip, CFH 8-15 as analyte, 1:1 kinetic fit
[17] = molecular target: T4, CFH 10-15 (recombinant fragment, CCPs …); assay: SPR, immobilised sPspCN
[18] = molecular target: T5, CFH 8-9 (recombinant fragment, CCPs 8-9 …); assay: SPR, sPspCN on NTA/Ni2+ chip, CFH 8-9 concentration series, equilibrium method
[19] = molecular target: T8, Recombinant human CFH, wild-type sequence, from Pichia pastoris (human, UniProt P08603 19-1231); assay: SPR, sPspCN on NTA/Ni2+ chip, rCFH as analyte, 1:1 kinetic fit
T8 construct: also called rCFH; CFH (wt)

[20] = molecular target: T6, Human C3b (plasma-purified); assay: SPR, amine-coupled C3b on C1 chip
[21] = molecular target: T9, Human C3d (plasma-purified) (human, UniProt P01024 1002-1303); assay: SPR, immobilised C3d
T9 construct: domain: TED; also called TED of C3b

[22] = molecular target: T6, Human C3b (plasma-purified); assay: SPR, immobilised C3b
[23] = molecular target: B3; assay: SPR, TIGR4 fragment on NTA chip, CFH as analyte
[24] = molecular target: B3; assay: SPR, His-SUMO-Cys-PspCN as ligand, plasma-purified CFH as analyte, kinetic analysis

T6 sequence (P01024 23-667 limits assumed, chain 1 of 2): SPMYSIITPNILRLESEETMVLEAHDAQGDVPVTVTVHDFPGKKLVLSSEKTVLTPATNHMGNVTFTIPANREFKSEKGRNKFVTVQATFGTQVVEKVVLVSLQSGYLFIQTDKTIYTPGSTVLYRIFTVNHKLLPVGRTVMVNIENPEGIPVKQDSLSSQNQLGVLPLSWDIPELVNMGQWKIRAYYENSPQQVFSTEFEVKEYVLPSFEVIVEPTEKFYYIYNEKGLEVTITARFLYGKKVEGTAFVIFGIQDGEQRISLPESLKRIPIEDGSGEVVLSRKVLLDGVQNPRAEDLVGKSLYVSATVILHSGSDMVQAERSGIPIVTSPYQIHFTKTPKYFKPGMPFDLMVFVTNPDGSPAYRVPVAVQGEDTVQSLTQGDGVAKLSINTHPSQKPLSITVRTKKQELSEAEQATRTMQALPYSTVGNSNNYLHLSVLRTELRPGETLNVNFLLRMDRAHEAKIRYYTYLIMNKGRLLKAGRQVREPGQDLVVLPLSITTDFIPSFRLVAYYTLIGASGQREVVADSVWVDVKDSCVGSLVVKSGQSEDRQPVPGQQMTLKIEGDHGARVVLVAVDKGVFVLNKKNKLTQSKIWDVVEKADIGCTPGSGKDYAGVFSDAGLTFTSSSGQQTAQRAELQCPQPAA
T6 sequence (P01024 749-1663 limits assumed, chain 2 of 2): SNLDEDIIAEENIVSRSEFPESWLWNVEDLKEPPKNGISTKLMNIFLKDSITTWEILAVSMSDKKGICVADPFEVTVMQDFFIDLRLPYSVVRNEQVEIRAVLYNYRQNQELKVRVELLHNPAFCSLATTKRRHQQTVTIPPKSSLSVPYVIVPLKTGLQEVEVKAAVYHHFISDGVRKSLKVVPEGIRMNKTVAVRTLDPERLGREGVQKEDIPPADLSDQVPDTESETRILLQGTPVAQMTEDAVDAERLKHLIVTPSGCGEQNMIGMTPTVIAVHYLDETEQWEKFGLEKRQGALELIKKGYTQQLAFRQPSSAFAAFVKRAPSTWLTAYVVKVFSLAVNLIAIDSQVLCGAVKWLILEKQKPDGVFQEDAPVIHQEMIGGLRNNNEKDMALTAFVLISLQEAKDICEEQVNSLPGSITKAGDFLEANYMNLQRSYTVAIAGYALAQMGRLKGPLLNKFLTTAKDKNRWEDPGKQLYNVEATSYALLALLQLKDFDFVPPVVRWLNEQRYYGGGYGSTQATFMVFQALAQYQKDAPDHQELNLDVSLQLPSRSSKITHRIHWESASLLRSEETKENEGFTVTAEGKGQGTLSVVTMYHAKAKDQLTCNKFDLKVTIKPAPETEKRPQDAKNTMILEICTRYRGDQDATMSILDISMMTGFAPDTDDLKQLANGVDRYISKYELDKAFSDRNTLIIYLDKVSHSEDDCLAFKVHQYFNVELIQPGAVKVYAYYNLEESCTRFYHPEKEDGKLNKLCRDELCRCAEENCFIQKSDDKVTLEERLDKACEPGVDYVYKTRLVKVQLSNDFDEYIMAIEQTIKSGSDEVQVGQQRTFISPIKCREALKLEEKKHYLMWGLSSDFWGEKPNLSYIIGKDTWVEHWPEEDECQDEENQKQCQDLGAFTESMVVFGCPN
T7 sequence (P08603 19-1231 D1119G limits assumed): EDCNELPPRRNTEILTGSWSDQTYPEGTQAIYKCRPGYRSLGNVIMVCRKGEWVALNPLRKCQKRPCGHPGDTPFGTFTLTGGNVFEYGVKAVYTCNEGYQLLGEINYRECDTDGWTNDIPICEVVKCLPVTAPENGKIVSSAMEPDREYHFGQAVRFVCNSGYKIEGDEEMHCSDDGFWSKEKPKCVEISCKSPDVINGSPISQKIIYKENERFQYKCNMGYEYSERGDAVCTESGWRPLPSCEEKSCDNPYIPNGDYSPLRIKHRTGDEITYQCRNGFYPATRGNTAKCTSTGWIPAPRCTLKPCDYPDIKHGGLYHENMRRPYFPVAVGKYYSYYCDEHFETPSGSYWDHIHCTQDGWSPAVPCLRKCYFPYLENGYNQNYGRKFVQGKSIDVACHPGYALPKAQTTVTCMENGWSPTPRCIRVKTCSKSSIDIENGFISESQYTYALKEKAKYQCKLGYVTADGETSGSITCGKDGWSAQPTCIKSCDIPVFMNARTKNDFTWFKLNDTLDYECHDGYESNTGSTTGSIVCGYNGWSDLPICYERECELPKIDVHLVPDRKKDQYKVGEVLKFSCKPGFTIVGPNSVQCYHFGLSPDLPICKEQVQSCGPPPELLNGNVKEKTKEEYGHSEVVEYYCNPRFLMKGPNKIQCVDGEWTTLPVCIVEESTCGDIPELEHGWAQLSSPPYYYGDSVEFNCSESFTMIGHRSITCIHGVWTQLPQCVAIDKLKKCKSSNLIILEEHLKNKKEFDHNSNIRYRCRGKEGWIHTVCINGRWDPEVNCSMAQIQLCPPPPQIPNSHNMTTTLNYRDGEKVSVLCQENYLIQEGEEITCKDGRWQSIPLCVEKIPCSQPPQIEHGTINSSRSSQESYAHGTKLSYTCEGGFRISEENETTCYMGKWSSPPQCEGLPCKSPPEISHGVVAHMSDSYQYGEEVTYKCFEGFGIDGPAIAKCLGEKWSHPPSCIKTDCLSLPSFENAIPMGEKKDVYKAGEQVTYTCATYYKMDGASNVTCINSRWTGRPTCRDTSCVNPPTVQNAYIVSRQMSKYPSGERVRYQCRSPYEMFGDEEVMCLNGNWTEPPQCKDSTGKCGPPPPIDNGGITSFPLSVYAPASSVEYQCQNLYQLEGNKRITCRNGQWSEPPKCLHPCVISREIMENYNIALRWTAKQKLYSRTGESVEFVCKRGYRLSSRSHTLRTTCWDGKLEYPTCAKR
Human C3d (plasma-purified) (human), sequence (P01024 1002-1303 limits assumed): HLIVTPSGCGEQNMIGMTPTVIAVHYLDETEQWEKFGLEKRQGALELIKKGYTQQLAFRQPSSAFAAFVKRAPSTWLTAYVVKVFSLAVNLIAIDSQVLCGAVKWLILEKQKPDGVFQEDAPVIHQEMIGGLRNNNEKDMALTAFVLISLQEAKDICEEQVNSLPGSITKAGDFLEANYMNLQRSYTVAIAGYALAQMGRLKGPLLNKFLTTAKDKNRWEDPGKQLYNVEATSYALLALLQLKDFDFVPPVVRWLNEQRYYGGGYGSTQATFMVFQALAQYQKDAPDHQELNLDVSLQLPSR
T9 sequence (P01024 1002-1303 limits assumed): as above
Human C3b (plasma-purified) (human), sequence (P01024 23-667 limits assumed, chain 1 of 2): as the sequence (P01024 23-667 limits assumed, chain 1 of 2) above
Human C3b (plasma-purified) (human), sequence (P01024 749-1663 limits assumed, chain 2 of 2): as the sequence (P01024 749-1663 limits assumed, chain 2 of 2) above

PspCN (TIGR4 68-148), fragment of PspC (CbpA) of S. pneumoniae strain TIGR4
Kd [1]: < 0.018 nM | Kd [2]: < 0.018 nM | Kd [3]: 0.001 pM

CFH:TIGR4 (37-179) complex
Kd [4]: 280 nM | Kd [5]: 1200 nM

B1
Kd [6]: ~0.0001 nM

B2
binding result [7]: binds

B3
Kd [8]: 550 nM | Kd [9]: 490 nM

B4
binding result [10]: no binding | binding result [11]: no binding | Kd [12]: 1 nM and 2 nM | Kd [13]: 0.045 pM | Kd [14]: 0.012 nM | Kd [15]: ~0.05 pM | Kd [16]: 1.3 nM | binding result [17]: no binding (tested: 50 nM (from the legend)) | Kd [18]: 26 nM | Kd [19]: 0.053 pM

B5
fold better binding than CFH alone [20]: 3 fold | fold better binding than intact CFH [21]: > 50 fold | Kd [9]: 160 nM | fold difference in affinity against CFH [22]: 4 fold

B6
Kd [23]: < 0.01 nM

B7
Kd [24]: ~0.0001 nM
